# Results taken from the supplement of paper PMC9732359.
# ± gives the uncertainty stated by the source.
# Experiment: protein stability index of a GFP-peptide fusion (yeast GPS) (PSI 1-4); higher = more stable; sorted into four equal gates, so the index is relative within each strain
# Settings: doa10∆
# Procedure, shortened: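 Tiled 17-residue yeast protein peptides were fused downstream of GFP in a plasmid that also expresses Cherry, and the pooled library was carried in yeast. Mid-log cultures in leucine-free medium were sorted into four equal gates by GFP/Cherry fluorescence ratio, and plasmids from each gate were PCR-amplified and Illumina-sequenced, with reads assigned to strains by barcodes. The protein stability index for each peptide was each gate's read frequency times its gate number, summed.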
row,Sequence,protein stability index
1,VNDVEELGEIIDEDIGN [RMP1],3.41 ± 0.15
2,VNEPTKNEEAEIEVDEM [RPN1],3.25 ± 0.17
3,VNGPNVHPGANYLLKRN [RPO31],3.29 ± 0.056
4,VNGRTKSNTIPVTSIPS [GAL11],2.9 ± 0.072
5,VNHLLLFAREIAKSQDK [DPB4],2.06 ± 0.15
6,VNQDKANNASQITPTVP [SNF12],3.03 ± 0.083
7,VNQTGSTKKDTVQLTFL [YCG1],3.05 ± 0.29
8,VNYNSDMIKCFLPKLNS [NUT1],2.66 ± 0.13
9,VNYRHFKAMEDVIAWKN [ITC1],2.98 ± 0.15
10,VPEMIGSVVGIYNGKAF [RPS15],1.27 ± 0.15
11,VPHSHPSDMVIPDHLAE [SNF12],2.04 ± 0.047
12,VPKHMLDKLDEILYYQI [AAR2],2.91 ± 0.069
13,VPSFLRPDITMYCRPAP [GRR1],2.12 ± 0.053
14,VPTSIQTKRWPTMYTRL [SIN4],2.18 ± 0.048
15,VPVIVKARFVSKLAEEK [RPL28],2.71 ± 0.024
16,VPYVLMGQIATFIYFAY [COB],1.38 ± 0.1
17,VQDLGSAISVTNVEDPL [SIR2],2.34 ± 0.069
18,VQDRGLSAVAQAESMKF [RPS3],3.16 ± 0.11
19,VQELLKVLNEISKTTLT [RPN3],3.1 ± 0.15
20,VQGSTLAQLTSKLIPEV [RPS1A],2.79 ± 0.061
21,VQKQTRAGQRTRFKAVV [RPS2],3.04 ± 0.12
22,VQKRDEVKEQLGILKKK [SMC4],2.75 ± 0.095
23,VQLLLHINSILLARVIQ [SNF11],1.84 ± 0.12
24,VQQQQQQQLRNQIQRQQ [SNF5],2.16 ± 0.071
25,VQSGQIYINKSVPTNSA [RET1],3.29 ± 0.14
26,VQSKARYTVRTFGIRRN [RPL11A],1.78 ± 0.083

row,Sequence,protein stability index
1,VQYLRSVQDLGGSATAR [YML031W/NDC1],2.14 ± 0.13
2,VRAVNTGMEPGKTSFFQ [RPP0],2.58 ± 0.16
3,VRDTSPHGISVFLSNLV [BRR2],1.35 ± 0.1
4,VRGGNIEIMGILMGFTL [RRI1],2.32 ± 0.074
5,VRSANEDGTFSVLYPDE [RRP43],3.13 ± 0.088
6,VRTRGGNKKYRALRIET [RPS8A],2.71 ± 0.032
7,VSALQMLKQHLFKYQGH [PUP1],2.55 ± 0.073
8,VSDDESNGEVLEVGKNN [RPN14],3.19 ± 0.1
9,VSFRTHNSHLSLNYKFT [SRP21],3.01 ± 0.048
10,VSGDAAALFRLHKFLTK [SWI3],2.92 ± 0.14
11,VSLPEGSFKRVKPQYDE [BRR2],3.16 ± 0.15
12,VSNENKKNIDYQNRSTR [RRI1],3.13 ± 0.065
13,VSNPIRKVFKPSQGMVV [FAS1],3.08 ± 0.068
14,VSSKCNDIHLRFMRFLA [ECM29],2.23 ± 0.083
15,VSSTIPRETIPFLHLRK [FAS2],2.93 ± 0.27
16,VSTAAAATVRSTIRRLR [RPL43A],2.54 ± 0.076
17,VSTKMHRTIVIRRAYLH [RPS11A],1.37 ± 0.047
18,VSTPEKWDITTRNSNNL [BRR2],3.27 ± 0.14
19,VTIASEIYYDPDPRSTV [RPO21],2.41 ± 0.14
20,VTIREQINIMPSLKAHF [SIR3],2.53 ± 0.077
21,VTKEYFQDVYDLTGSEP [FAS1],2.53 ± 0.23
22,VTKQSELNSSEDILEDM [SMC1],3.37 ± 0.065
23,VTRLFFICSIIQTVVIS [YML031W/NDC1],1.23 ± 0.051
24,VTTKDDLSGADIQAMCT [RPT2],3.15 ± 0.07
25,VTTNINWRSFNAKIIDA [SRP68],3.14 ± 0.081
26,VTYALSGYVRSRGESDD [RPS21A],3.3 ± 0.22

row,Sequence,protein stability index
1,VVAKKDFNQAKHEEIDT [RPS10A],3.51 ± 0.2
2,VVDGTVVSCSQHGFEVQ [RPB7],3.08 ± 0.071
3,VVDHHVENELLQVDVDI [RRP42],3.4 ± 0.13
4,VVDPKTSIEKSSEILSY [YML103C/NUP188],1.49 ± 0.087
5,VVDVALKYPELSIKNSF [NUT1],3.04 ± 0.071
6,VVEKEKIESLAGGGESD [UBP6],3.35 ± 0.2
7,VVIDAKDHLLGRLASTI [RPL16B],1.33 ± 0.066
8,VVKASELDQFWQEYSSV [SRP14],3.04 ± 0.061
9,VVLYNYYLGQYYGCLEN [CSN12],2.5 ± 0.17
10,VVNSNFAKEHNATVNLA [YJR042W/NUP85],2.82 ± 0.1
11,VVPNEKADDDSVTIISA [ASC1],2.98 ± 0.072
12,VVQDSQTATQLLERGRL [SMC2],2.9 ± 0.053
13,VYAFKAKNKSTRINGLN [REC8],1.53 ± 0.1
14,WDLLQSGSQNISEFDSF [RPN12],3.38 ± 0.16
15,WGGFPLDISVFLLEKAG [TAF14],3.2 ± 0.11
16,WKEVLAHNPELERYVKR [RPO31],3.6 ± 0.11
17,WKNLVLKLSQAFGSSAT [YJR042W/NUP85],2.58 ± 0.055
18,WKYEDVVAKLEDKRKVR [RPL16B],3.12 ± 0.064
19,WMMNGALQILNSGIIPG [FAS2],1.7 ± 0.092
20,WNLNQFQIEADFIGHNS [ASC1],2.79 ± 0.079
21,WNRLTISVTDTEVERAK [COR1],3.19 ± 0.09
22,WTEASSSGAGTVKLYLP [ECM29],2.05 ± 0.052
23,YAIIINYTKDNEYYPMC [YCS4],1.36 ± 0.071
24,YAKEDAFSYPRMYEEAS [RPN2],2.66 ± 0.091
25,YASKINRAEGPEELARI [RGR1],3.31 ± 0.12
26,YAVAEQCPVKSAEDQLY [QCR2],3.22 ± 0.13

row,Sequence,protein stability index
1,YDEDPYGFEDESAPITA [RPB2],3.05 ± 0.071
2,YDGDTVTFSPTGRLFQV [PRE5],2.96 ± 0.089
3,YDPKDALKNACNSIINK [RPB11],3.32 ± 0.24
4,YEAPRHGHLGFLPRKRA [RPL3],2.99 ± 0.1
5,YEDSGSTYKHDRGIANI [SRB4],3.29 ± 0.13
6,YEFPIEGIEIYDRKKLP [RPC11],3.16 ± 0.14
7,YEMVIREKNALKRLAWQ [ISW2],2.08 ± 0.047
8,YEQHIENIEPLDPINLP [PRP8],2.38 ± 0.11
9,YFKSILLNKNTGNNLYD [SWI1],2.59 ± 0.048
10,YFLRRQYILQIVSFIVN [YJL039C/NUP192],1.2 ± 0.048
11,YFRILLPYERHMISQEG [SWI1],1.37 ± 0.052
12,YGGDGLDPLEMEGNAQP [RPO31],3.39 ± 0.081
13,YGKLRNGMFCQVPSSLI [RRP4],2.22 ± 0.066
14,YGRDDMENIKKSIDSKT [ISW2],2.87 ± 0.11
15,YHGNECEINYYEILLKI [SRB8],1.66 ± 0.055
16,YIDEMYNHNDGGDGRDY [RRI1],2.47 ± 0.1
17,YILSLVSIKDSTGCVVG [YMR129W/POM152],1.41 ± 0.041
18,YISLLKLQGLYENIPIY [YDL116W/NUP84],1.67 ± 0.06
19,YIYSQETKSWINESAEN [MED1],2.58 ± 0.047
20,YKDVSDLIRSESMLHLS [IRR1],2 ± 0.071
21,YKHIDASGSINRKVLQA [RPS19A],2.06 ± 0.072
22,YKVDAEGKVTKLRRECS [RPS31],2.68 ± 0.12
23,YLCFILSTRAGGLGLNL [SNF2],2.32 ± 0.08

# Same assay, conditions: pdr5∆
row,Sequence,protein stability index
1,VNEPTKNEEAEIEVDEM [RPN1],3.22 ± 0.23
